According to the RNAGym collection of RNA variant scans (doi:10.1073/pnas.2313332121):

B1: TPR t1 (parent)
chain: GACCAAUCUGCCCUCAGAGCUCGAGAACAUCUUCGGAUGCAGAGGAGGCAGGCUUCGGUGGCGCGAUAGCGCCAACGUCCUCAACCUCCAAUGCAUCCCACCACAUGAUGAUGCCUGAAGAGCCUUGGUUUUUUG

Variants of: B1
Experiment: polymerase ribozyme fitness, log enrichment relative to wild type (log ratio); higher = more active; in vitro selection for triplet polymerase activity
How it was run: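 Mutant libraries of each subunit of a heterodimeric triplet polymerase ribozyme were built by PCR and transcribed. Each library went through one round of in vitro selection in triplicate: annealing with biotinylated primer, partner subunit and triplets, frozen incubation at −7 °C, gel excision of extended constructs, streptavidin-bead capture and RT-PCR. Input and output libraries were Illumina-sequenced; only genotypes with ≥10 input reads and ≥1 read per output were kept. Fitness is log2(genotype enrichment/wild-type enrichment), using inverse-variance-weighted replicate averages.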

Variant | polymerase ribozyme fitness (log ratio)
C72A G110U | -1.54
C70U A108U | -5.38
G71C A84U | -2.77
G71A U112G | -1.07
G71A U112C | 0.03
C72U A84G C114A C115A | -6.51
G71U C76A | -5.51
C72U U112C | 1.19
C72U U112A | 0.821
C72A G110A U131A | -0.37
G71C U92C | -2.76
C72A C124U U131A | 1.33
C70U U130A | -1.04
C70A G128A | -3.64
C70G A100U | -4.02
C70U C101U G117C | -5.37
C72U C86U G117A | -2.26
C70A C104A U109A G128C | -7.62
C72A C73U | -0.581
G71U G117A U130C | -1.71
G71A C99G A100C C123A | -8.12
G71U C124G U126C | 2.04
C70U U78A G120U G128A | -2.18
C72A C102U | -1.48

Variant | polymerase ribozyme fitness (log ratio)
C70A U130A | -2.04
C72A U96A U109G | -6.14
G71A C79G | -3.16
C70U C79U C124U | 1
C70A A83G C85U G113U G117U | -6.04
C70G C97U U116A G117A | -5.25
G71C U87C | -1.45
G71C C88G | -1.88
G71U G122A | -0.705
G71C G93C G127A | -2.95
G71C C89U U126C | -2.71
C72G G135C | -1.17
C72G G135U | -0.702
C72G C104U | -0.348
C70G C79A | -4.41
C72A U132A | -0.00723
C72U C89G G113C | -3.26
G71C U78A A118G | -0.642
C72U C76U A121C | 1.1
C70G A84U | -3.25
C70G G127C | -3.14
G71A G117C | -3.15
C70G U132G U133A | -2.52
C70G C72U C123A U129G U133G | -2.93

Variant | polymerase ribozyme fitness (log ratio)
C72A A100C G120A | -0.61
C72G C97U G122A | -1.57
G71U C82G | -1.17
C70U U131G U133A | -0.369
C72G A95U | -1.07
G71C U96C G127A | -3.25
C70U A111C U116G A121C | -4.3
C70G C99A | -7.95
C72U C123A U126G | -1.44
G71A C101A | -2.55
G71A C101U | -0.59
C72G A121C | 1.48
C70A G110A | -3.53
C70U U96A | -1.14
G71A C89U | -0.978
C70G U125G | -4.85
C70G U125A | -2.85
C72U C124G | 1.47
C70G A75C C115A | -1.54
C73A A74G | -0.555
C70A C85U G110C C115U A121G | -7.89
G71U U131A | 0.00469
G71U C89G | -1.88
C70G U78A C86A | -3.32

Variant | polymerase ribozyme fitness (log ratio)
C70A U129C | -2.68
C70A U129A | -3.27
G69U U133G | 0.15
C72A G120A | 1.06
C72G C88U U92A | -3.52
C70U C114U | -2.88
C72U U78C C97U | -1.02
C70A U112C | 0.318
C70A U112A | -0.662
G71U C124G | 1.72
G71A G120C | 0.139
C70U U109A | -4.47
C72G A83G | -0.0856
G71A C89U U126C | -1.9
G71A G77C C101G | -2.79
G71C A121U | 0.296
C72G C86G U92A A111G G128U U132C | -6.17
G71C G117C | -4.7
C70A G127C | -2.17
G71U C104A | -1.81
C72A C86U A108U | -5.12
C72A C85U A90C | -1.5
C72G C98U A105C | -4.92
C70U A119G | 0.891

Variant | polymerase ribozyme fitness (log ratio)
C70G A119G | -1.37
G71C A90G | -0.94
G71C A90C | -3.67
C72U G113A | -1.48
C70G C73U | -2.63
C72G C79G | -1.67
C70A C88A | -1.82
G71C A103U C115A G117A | -5.57
G71U U126G | -2.34
G71C G127C | -2.16
G69U G135U | -0.532
C72U U132A | -0.0764
C72U U78C G117U G122A U130G | -2.87
G71U C101G U106G | -3.61
G71A U116C G117U | -2.83
C70U G77A U81C | -1.19
C72G U78A U109A G128A | -5.92
G71C A83U | -1.19
C72U G117C | -2.69
C72A C89A C124G | 0.634
G71A A84U U112A U131A | -0.0045
G71A C79U C98U | -1.99
G71A C94G A108G C123A G135U | -4.8
C72G C82G A105C | -4.16

Variant | polymerase ribozyme fitness (log ratio)
C72A C82G | -0.603
C70A U132A | -0.853
C72A C86G C89U | -1.07
C72U U78C C94U | -0.922
C72G C73U C86G | -5.02
C72U C94G | -1.95
G71C C79A | -1.86
C72G C101G | -1.33
C70A C97U | -2.23
C70U C102G A121G | -5.14
C70G U87C | -4.17
G71U C82A U116A | -4.01
G71A C82U C101A | -0.823
C70U A75U G77U A83U U106A C114U C123G U133G | -6.34
C70U C99U | -3.35
G71A U92C | -2.39
G71A U92G | -3.98
C72U C89A | -1.22
C70G G120C | -1.8
C70G U112C C114A | -4.91
C72A A83C U96A G110A | -2.24
C70U G93C | -1.12
G71U A105C | -2.99
C70A C102U | -4.59

Variant | polymerase ribozyme fitness (log ratio)
G71A U81G G113A C123U | -6.93
C72G C88A C94U G120C | -1.57
G71C A74G A91C G93C C99G A105U A111G | -6.99
C72A C94U G120C | 1.05
C72A C82A U96G A100U C115A | -3.23
C70G C114U | -4.81
G71A A100U | -1.77
C70U C98U U129G | -2.67
C72G A90G G110U G135C | -2
C72A U78A C124A U132C U133A | 1.3
C70A C73U A111C | -2.13
G71C U112A U133A | 0.204
C70U C97A | -4.6
C70U G122A | -0.84
C72G C102U | -1.53
G71A C85G U126C | -2.15
C70A C104U | -1.79
G71U U81C G93A G120A | -0.964
C70U U81A C82G | -2.96
C70G A74G | -4.02
G69U U130G | 0.642
C72U C86A | -0.584
C70U A95U A111U G120U | -6.23
